The sequences below were run on Escherichia coli TOP10 (assay: shrunken log2 fold change of peptide-encoding DNA abundance (4.5 h post-induction vs induction); higher = less antimicrobial activity (less host growth inhibition)). Details: time post-induction: 4.5 h; library: site-saturation at positions 5, 18, 19, 20.
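Also: peptides expressed intracellularly from a pBAD plasmid library in pooled LB shake-flask culture, induced with 0.3% L-arabinose, DNA abundance read by NGS, three biological replicates, DESeq2 with apeglm shrinkage.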

Sequence	shrunken log2 fold change
RRIRMRPPRLPRPRPRPDEPPRP	2.72
RRIRQRPPRLPRPRPRPEDTPRP	-0.0122
RRIRARPPRLPRPRPRPHAGPRP	0.122
RRIRRRPPRLPRPRPRPGAPPRP	0.891
RRIRMRPPRLPRPRPRPSDMPRP	0.0637
RRIRYRPPRLPRPRPRPVDWPRP	0.145
RRIRHRPPRLPRPRPRPSAGPRP	-0.182
RRIRWRPPRLPRPRPRPPLNPRP	0.188
RRIRHRPPRLPRPRPRPLALPRP	-0.563
RRIRPRPPRLPRPRPRPGIVPRP	-0.0451
RRIRMRPPRLPRPRPRPGMSPRP	-0.0593
RRIRNRPPRLPRPRPRPAITPRP	0.134
RRIRYRPPRLPRPRPRPILSPRP	-0.107
RRIRIRPPRLPRPRPRPIYPPRP	-0.304
RRIRFRPPRLPRPRPRPCCWPRP	0.148
RRIRQRPPRLPRPRPRPIYPPRP	-0.121
RRIRSRPPRLPRPRPRPREDPRP	0.432
RRIRHRPPRLPRPRPRPMSQPRP	-0.151
RRIRTRPPRLPRPRPRPEMNPRP	0.00876
RRIRMRPPRLPRPRPRPFEIPRP	0.0739

Sequence	shrunken log2 fold change
RRIRLRPPRLPRPRPRPQPNPRP	-0.00696
RRIRPRPPRLPRPRPRPFCHPRP	-0.00162
RRIRWRPPRLPRPRPRPLVCPRP	0.476
RRIRHRPPRLPRPRPRPIEFPRP	-0.19
RRIRPRPPRLPRPRPRPPPHPRP	0.657
RRIRRRPPRLPRPRPRPCWYPRP	-0.112
RRIRARPPRLPRPRPRPGKDPRP	0.36
RRIRLRPPRLPRPRPRPWCQPRP	-0.0199
RRIRSRPPRLPRPRPRPWTGPRP	-0.105
RRIRCRPPRLPRPRPRPFCIPRP	-0.571
RRIRGRPPRLPRPRPRPDYYPRP	-0.0926
RRIRPRPPRLPRPRPRPTKRPRP	0.265
RRIRERPPRLPRPRPRPQQGPRP	-0.219
RRIRPRPPRLPRPRPRPKSRPRP	0.154
RRIRQRPPRLPRPRPRPHGTPRP	-0.0865
RRIRNRPPRLPRPRPRPPETPRP	0.314
RRIRRRPPRLPRPRPRPHHFPRP	-0.196
RRIRGRPPRLPRPRPRPARNPRP	0.51
RRIRRRPPRLPRPRPRPITRPRP	0.0299
RRIRGRPPRLPRPRPRPVHNPRP	0.259

Sequence	shrunken log2 fold change
RRIRYRPPRLPRPRPRPRNNPRP	-0.738
RRIRCRPPRLPRPRPRPRADPRP	0.454
RRIRIRPPRLPRPRPRPNVHPRP	-0.398
RRIRSRPPRLPRPRPRPWISPRP	0.181
RRIRVRPPRLPRPRPRPKEDPRP	0.0522
RRIRIRPPRLPRPRPRPLNDPRP	-0.351
RRIRIRPPRLPRPRPRPRNHPRP	-0.354
RRIRVRPPRLPRPRPRPHGEPRP	0.0918
RRIRWRPPRLPRPRPRPAMSPRP	0.403
RRIRIRPPRLPRPRPRPYIYPRP	-0.176
RRIRWRPPRLPRPRPRPAVLPRP	0.117
RRIRSRPPRLPRPRPRPHFNPRP	-0.419
RRIRHRPPRLPRPRPRPNNSPRP	-1.11
RRIRKRPPRLPRPRPRPERWPRP	1.15
RRIRWRPPRLPRPRPRPRQMPRP	0.0196
RRIRVRPPRLPRPRPRPNNDPRP	-0.335
RRIRCRPPRLPRPRPRPQFCPRP	-0.187
RRIRVRPPRLPRPRPRPCILPRP	-0.208
RRIRERPPRLPRPRPRPKCCPRP	-0.191
RRIRTRPPRLPRPRPRPCKYPRP	-0.41

Source: the supplement of paper PMC9112550, “Optimization of the antimicrobial peptide Bac7 by deep mutational scanning” (BMC Biology, 2022)
